The results in this text go back to article PMC5006282.

Assay in all cases: pull-down MS
Common to all, as to details: 5' biotin on sense strand; DNA immobilised on streptavidin beads in 20 mM Tris-HCl pH 8.0, 200 mM NaCl, 0.5 mM EDTA, 0.03% NP40; protein binding buffer and temperature not in the …

For data set [1], the target named is Helios (Homo sapiens (Raji)) (UniProt Q9UKS7).
The target of data set [2] is Aiolos (Homo sapiens (Raji)) (UniProt Q9UKT9).
The target in data set [3] is NFKB2 (NF-kappa B p100/p52) (Homo sapiens (Raji)) (UniProt Q00653).
UniProt Q00653, sequence (Q00653 whole entry): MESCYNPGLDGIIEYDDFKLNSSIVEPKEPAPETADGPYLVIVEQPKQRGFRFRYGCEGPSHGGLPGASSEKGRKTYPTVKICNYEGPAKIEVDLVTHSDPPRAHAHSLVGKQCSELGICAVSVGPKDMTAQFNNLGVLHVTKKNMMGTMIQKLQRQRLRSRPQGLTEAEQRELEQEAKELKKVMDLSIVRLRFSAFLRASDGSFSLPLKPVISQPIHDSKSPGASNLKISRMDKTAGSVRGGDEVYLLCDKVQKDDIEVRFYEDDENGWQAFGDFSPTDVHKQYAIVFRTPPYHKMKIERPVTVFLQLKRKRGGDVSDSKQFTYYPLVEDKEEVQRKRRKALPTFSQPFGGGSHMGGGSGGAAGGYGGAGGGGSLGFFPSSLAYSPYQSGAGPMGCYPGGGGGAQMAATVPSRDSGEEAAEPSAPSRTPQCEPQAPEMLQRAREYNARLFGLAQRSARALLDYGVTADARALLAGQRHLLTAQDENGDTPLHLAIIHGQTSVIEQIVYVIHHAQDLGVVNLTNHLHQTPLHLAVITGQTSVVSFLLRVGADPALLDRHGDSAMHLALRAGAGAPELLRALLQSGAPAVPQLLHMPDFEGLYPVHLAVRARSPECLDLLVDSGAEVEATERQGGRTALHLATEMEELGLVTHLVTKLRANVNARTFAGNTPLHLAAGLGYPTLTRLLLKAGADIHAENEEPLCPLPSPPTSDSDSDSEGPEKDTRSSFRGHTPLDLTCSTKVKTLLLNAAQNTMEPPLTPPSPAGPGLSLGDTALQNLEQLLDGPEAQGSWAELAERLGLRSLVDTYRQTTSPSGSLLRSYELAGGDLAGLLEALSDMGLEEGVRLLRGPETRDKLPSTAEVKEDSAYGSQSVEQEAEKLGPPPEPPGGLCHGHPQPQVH
Data set [4] concerns the target HCF-1 (Homo sapiens (Raji, Molt4)) (UniProt P51610).
UniProt P51610, sequence (P51610 whole entry): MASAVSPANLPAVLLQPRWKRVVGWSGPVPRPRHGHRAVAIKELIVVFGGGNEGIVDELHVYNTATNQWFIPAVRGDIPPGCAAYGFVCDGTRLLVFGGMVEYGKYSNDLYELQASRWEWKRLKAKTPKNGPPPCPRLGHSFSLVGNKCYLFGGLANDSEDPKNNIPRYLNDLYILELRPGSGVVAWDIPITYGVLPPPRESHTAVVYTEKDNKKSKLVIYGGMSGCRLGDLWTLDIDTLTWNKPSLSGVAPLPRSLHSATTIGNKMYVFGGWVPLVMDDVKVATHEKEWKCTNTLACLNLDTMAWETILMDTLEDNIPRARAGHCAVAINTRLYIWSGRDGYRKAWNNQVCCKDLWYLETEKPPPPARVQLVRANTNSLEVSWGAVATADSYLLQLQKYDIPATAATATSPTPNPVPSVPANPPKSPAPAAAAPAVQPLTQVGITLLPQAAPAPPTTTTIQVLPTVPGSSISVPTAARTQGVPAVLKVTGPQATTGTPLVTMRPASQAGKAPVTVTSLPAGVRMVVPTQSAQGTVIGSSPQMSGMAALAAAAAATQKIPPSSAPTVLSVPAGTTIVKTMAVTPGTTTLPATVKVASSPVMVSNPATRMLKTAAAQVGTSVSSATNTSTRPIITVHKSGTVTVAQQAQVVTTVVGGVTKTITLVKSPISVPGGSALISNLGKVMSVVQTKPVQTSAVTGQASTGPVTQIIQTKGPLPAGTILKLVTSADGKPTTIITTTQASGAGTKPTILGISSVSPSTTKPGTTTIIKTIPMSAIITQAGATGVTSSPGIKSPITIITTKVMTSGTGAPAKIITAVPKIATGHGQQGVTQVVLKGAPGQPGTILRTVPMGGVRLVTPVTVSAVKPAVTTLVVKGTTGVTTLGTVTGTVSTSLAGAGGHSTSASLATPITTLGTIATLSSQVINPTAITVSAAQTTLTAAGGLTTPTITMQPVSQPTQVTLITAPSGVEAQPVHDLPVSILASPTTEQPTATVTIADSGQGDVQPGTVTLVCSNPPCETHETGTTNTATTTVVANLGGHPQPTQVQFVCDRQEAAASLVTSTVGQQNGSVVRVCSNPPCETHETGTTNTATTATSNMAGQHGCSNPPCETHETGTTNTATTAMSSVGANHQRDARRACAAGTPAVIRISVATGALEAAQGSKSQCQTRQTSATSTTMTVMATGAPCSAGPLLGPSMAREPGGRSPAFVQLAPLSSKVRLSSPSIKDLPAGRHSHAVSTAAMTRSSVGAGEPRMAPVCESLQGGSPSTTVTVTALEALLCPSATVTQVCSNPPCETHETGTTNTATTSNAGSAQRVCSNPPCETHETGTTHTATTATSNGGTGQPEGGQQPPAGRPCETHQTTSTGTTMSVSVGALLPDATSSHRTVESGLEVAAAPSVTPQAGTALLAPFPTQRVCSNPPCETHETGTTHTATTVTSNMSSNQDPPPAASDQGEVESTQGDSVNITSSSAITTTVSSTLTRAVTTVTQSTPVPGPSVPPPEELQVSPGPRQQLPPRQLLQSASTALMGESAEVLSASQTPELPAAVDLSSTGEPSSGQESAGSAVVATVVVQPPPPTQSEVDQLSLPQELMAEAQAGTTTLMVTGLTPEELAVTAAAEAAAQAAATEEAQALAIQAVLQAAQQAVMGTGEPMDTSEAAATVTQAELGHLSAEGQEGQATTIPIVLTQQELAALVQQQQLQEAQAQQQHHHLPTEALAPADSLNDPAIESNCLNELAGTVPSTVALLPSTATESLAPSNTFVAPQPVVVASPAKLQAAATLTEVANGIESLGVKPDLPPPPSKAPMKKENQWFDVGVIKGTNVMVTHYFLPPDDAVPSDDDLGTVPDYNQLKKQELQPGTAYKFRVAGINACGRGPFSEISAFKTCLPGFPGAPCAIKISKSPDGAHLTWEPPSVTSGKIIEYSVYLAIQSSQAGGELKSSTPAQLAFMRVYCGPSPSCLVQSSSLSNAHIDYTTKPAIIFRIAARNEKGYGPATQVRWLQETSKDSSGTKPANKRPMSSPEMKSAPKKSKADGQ
Data set [5] has as its target Ikaros (Homo sapiens (Raji, Molt4 nuclear extract)) (UniProt Q13422).
UniProt Q13422, sequence (Q13422 whole entry): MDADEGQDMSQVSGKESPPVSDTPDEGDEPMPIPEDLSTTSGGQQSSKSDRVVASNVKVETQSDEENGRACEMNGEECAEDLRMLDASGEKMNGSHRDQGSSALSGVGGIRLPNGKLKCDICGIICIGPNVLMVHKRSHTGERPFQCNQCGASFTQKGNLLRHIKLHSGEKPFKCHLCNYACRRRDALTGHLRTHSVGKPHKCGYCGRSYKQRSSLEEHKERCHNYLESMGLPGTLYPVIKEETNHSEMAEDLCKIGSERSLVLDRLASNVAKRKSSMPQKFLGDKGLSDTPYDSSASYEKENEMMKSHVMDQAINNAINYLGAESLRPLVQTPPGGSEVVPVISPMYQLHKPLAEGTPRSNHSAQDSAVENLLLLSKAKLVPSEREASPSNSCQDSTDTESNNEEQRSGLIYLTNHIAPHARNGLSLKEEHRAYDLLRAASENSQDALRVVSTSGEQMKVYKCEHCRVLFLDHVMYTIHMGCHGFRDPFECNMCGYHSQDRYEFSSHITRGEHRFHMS

UniProt Q9UKS7, sequence (Q9UKS7 whole entry): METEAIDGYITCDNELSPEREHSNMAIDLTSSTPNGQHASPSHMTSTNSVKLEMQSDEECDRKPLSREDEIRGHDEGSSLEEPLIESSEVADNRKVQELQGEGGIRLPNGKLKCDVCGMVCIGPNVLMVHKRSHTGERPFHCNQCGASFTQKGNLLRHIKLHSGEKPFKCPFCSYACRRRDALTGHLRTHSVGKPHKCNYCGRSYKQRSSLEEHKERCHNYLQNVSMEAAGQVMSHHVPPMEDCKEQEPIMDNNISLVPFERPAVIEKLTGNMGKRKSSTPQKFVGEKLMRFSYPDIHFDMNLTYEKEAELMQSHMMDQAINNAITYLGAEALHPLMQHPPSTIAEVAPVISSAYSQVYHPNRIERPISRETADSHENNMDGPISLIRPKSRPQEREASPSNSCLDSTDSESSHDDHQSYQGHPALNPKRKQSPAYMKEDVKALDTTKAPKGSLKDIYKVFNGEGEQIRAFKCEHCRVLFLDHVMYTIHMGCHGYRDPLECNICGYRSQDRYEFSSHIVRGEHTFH
UniProt Q9UKT9, sequence (Q9UKT9 whole entry): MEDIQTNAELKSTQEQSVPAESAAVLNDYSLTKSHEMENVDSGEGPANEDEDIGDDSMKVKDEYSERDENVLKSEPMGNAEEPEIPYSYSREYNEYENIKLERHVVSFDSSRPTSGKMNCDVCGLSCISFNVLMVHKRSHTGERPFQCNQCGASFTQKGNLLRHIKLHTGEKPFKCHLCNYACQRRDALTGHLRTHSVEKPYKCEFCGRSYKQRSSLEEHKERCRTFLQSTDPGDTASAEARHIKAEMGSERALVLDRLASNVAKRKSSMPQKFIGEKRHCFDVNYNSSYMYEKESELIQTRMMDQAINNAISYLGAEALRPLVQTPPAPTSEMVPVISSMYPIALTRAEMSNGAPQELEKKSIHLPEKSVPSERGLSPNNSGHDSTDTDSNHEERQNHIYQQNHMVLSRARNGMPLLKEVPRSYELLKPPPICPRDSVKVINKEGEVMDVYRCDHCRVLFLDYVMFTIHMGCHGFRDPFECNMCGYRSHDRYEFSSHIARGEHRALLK

With “CAAAACTGCAGGCAACTAGAACTACATTTCCCGGCGTGATTTGCTGCGGAACGAACTACATCTCCCGGCAGGCTGCG (double strand) [Tandem M4 WT]”, the binding signal (SILAC ratio WT/MT) in data set [1] was over 100; in data set [2], over 100; in data set [3], 31.8; in data set [4] it was 19; in data set [5], over 100.
